Data: patent US20240158448A1, “MULTIVALENT NANO-'SELF' PEPTIDES AND USES THEREOF” (THE TRUSTEES OF THE UNIVERSITY OF PENNSYLVANIA, priority 2021, published 2024)
Entries after “also recorded” stand apart in the source; their conditions may differ. Non-standard residues stand in square brackets, D forms with d. Primed or numbered codes have the meaning given here. No end group written: not given here. PEG5′ = linker of 5 PEG units between residues

What was measured:
[1] = Pre-clinical safety: intravenous nS-FF injections in mice; format: in vivo, mouse
Description: FIGS. 23A-23D illustrate that pre-clinical assessments indicate nS-FF is safe in vivo Phase 1 pre-clinical trial: Intravenous injections of nS-FF were done for four consecutive days followed by blood withdrawal 24 hours after last injection.
Phase 1 clinical trials for safety of anti-CD47 in patients have shown that infusion into the bloodstream decreases RBC numbers (i.e. hematocrit) and increases reticulocytes (i.e. new RBCs), and related blood safety concerns apply to a bivalent CD47-binding protein made with SIRPα domains fused to a macrophage-binding domain (Fc domain). […] This corresponds to about 8 μM in the blood, assuming rapid mixing and no dilution within the ˜1.5 mL blood volume of the mouse. Withdrawal of ˜140 μL from this blood volume was necessary to obtain a complete hematology profile, and such a volume is expected to cause slight decreases in hematocrit and platelets as shown (FIGS. 23A-23B). Consistent with this loss, more RBCs should be produced in each mouse to compensate for the RBC loss, and the ˜30% increase in reticulocytes after the first two blood draws over 11 days (FIG. 23C) is similar to the prior amount of blood removed (˜300 μl/1500 μl). The mice (˜14 weeks) also continued to gain weight at the same rates (˜5% over 11 days) regardless of peptide injections. These changes are thus expected but, importantly, unaffected by the nSFF peptide, which establishes some safety.

[2] = test system: human macrophages (opsonized K562 cancer cells); assay: Phagocytosis of opsonized K562 erythroleukemia cells by human macrophages; format: cell-based
Description: In vitro phagocytosis assay. Fresh human RBCs were washed twice with 50 mM EDTA (Thermo Fischer) in PBS (Gibco) then twice with 5% FBS in PBS. RBCs were opsonized with 20 μg/mL rabbit anti-human RBC antibody (Rockland) in 5% FBS for 1 hour at RT with shaking. For CD47 blocked RBCs, 5 μg/mL of mouse anti-human CD47 (B6H12; BD Biosciences) were added. Thereafter, RBCs were washed with PBS three times and stained with PKH26 dye (1:800 dilution in PBS; Sigma) for 1 hour at RT with shaking in the dark. RBCs were washed and resuspended in PBS.
THP-1 monocytes were PMA differentiated in RPMI for 48 hours. Macrophages were then washed with RPMI media three times. For SIRPα blocked THP-1 macrophages, 20 nM, 1 μM or 50 μM of the nano—Self peptides were incubated with the THP-1 macrophages for 1 hour at 37 ° C., 5% CO2 and 95% humidity. Those THP-Is were then washed with RPMI three times.
CO2 and 95% humidity. Macrophages were then washed with RPMI three times. Adherent and uninternalized RBCs were lysed with water for 30 seconds followed by immediate replacement with RPMI media. In order to distinguish remaining adherent RBCs from internalized RBCs, opsonized RBCs were stained with AlexaFluor 647 donkey anti-rabbit (binds to rabbit polyclonal opsonin on RBC; Invitrogen) IgG (1:1000) while unopsonized, CD47 blocked RBCs were stained with AlexaFluor 647 donkey anti-mouse (binds to mouse monoclonal anti-CD47 on RBCs; Invitrogen) IgG (1:1000) for 30 minutes. After washing, macrophages were fixed with 4% formaldehyde for 15 minutes at RT, washed with PBS, stained with 1 μg/mL Hoechst 33342, and then washed with PBS again. Fluorescence imaging was performed as described elsewhere herein and quantification was done using ImageJ. At least 200 cells were analyzed and experiments were repeated at least three times.
The anti-RBC successfully opsonized and triggered phagocytosis of K562 cells by macrophages (FIGS. 2A, 2F and 2E). […] Interaction of the nS peptides with K562 cells is likely minimal due to the relative lack of SIRPα expression. […] For both opsonized RBCs and opsonized K562s (FIGS. 2D, 2F), the hyperphagocytosis that is achieved with soluble F- and V-nS peptides matches the recently measured increases for disruption of both (i) the trans interactions between CD47 on a target and macrophage SIRPα and also, importantly, (ii) the cis interactions between CD47 and SIRPα on the same macrophage (FIG. 2G-left). Expression profiling of macrophages confirms these cells generally express CD47 at roughly similar levels to other cell types (FIG. 15). […] A preliminary conclusion is that nS-FF and the other substituted peptides, which were designed to bind SIRPα, inhibit both the cis and trans interactions between SIRPα and CD47 ([…]).

[3] = test system: A549 (SIRPα positive) cells; assay: Confocal live staining with FAM-labeled peptides, A549 cells; format: binding, human; settings: 100 uM and 1 μM FAM-labeled peptide
Description: SIRPα staining and confocal imaging. THP-1 monocytes were PMA-differentiated in RPMI 1640 for 24 hours. J774A.1, A549, and COS-1 cells were plated for 24 hours in media, respectively. Cells were washed with respective media prior to addition of fluorescent peptides. The peptides were left to incubate for 1 hour at 37 ° C., 5% CO2 and 95% humidity. For fixed cell staining, cells were incubated with 4% formaldehyde (Pierce) for 15 minutes prior to the addition of fluorescent peptides whereas for live cell staining, fixation was done after incubation with the FAM-labeled peptides. Nuclei were stained with 1 μg/mL Hoechst 33342 (Invitrogen). Cells were the washed PBS three times before analysis. Fluorescence imaging of fixed cells was performed using an Olympus IX71 with a digital EMCCD camera (Cascade 512B) and a 40×/0.6 NA objective. […] Quantification was done with ImageJ (NIH).
In order to visualize the uneven binding of the peptides to the surface of the macrophages, a live staining experiment of THP-1, J774A.1, and A549 cells, which all express SIRPα at different levels, was performed with FAM-labeled nS-wt and nS-X and analyzed by confocal microscopy (FIG. 11). […] Fluorescence of nS-X was consistently lower on THP-1 and J774A.1 macrophages relative to nS-wt. […]

Row | Substance | increase in reticulocytes ([1]; after the first two blood draws over 11 days, unaffected by peptide) [%] | safety: mouse hematology and body weight ([1]; four daily tail-vein injections of 1 mg/kg, 1 mg/kg) | body weight gain ([1]; over 11 days, same rates regardless of peptide injections) [%] | increase of phagocytosis relative to opsonized and CD47 blocked K562 cells ([2]; saturating peptide) | macrophages engulfing opsonized K562 cells at saturation ([2]; saturation) [%] | binding to A549 cells [3]
1 | (VTELFREG-PEG5)2-K (VTELFREG[PEG5′]K[PEG5′]GERFLETV; not fully specified; also: bivalent lysine core) [nS-FF, bivalent nS-F linked through PEG5 linkers to a C-terminal Lys] | ~30 | safe, with no anemia or weight loss; also recorded: no differences versus PBS vehicle control | ~5 | nearly doubled; also recorded: about two-fold | ~40 | 
2 | VTELTREG [nS-wt, 8-amino acid wild type nano-Self peptide from the CD47 loop, C-terminal amide] |  |  |  |  |  | binding was observed at 100 uM on A549 cells all around the surface
